From patent US20110318339A1 (FABRUS, published 2011)

Columns and labels:
[1] = biological target: T1, Recombinant Human DLL4 (Cat# 1506-D4/CF) (human, UniProt Q9NR61 27-529); experiment: Multispot ECL; Fab 32.5 nM
T1 construct: Bought from R&D Systems; also called rHuman DLL4; hDLL4
Description: (§1) An 150 μl aliquot of 1% Bovine Serum Albumin (BSA) in Tris-buffered Saline Tween (TBST) was added to each well and allowed to incubate for 30 min at 20° C. followed by washing and tap drying to completely remove any residual solution. Subsequently, a 12.5 μl aliquot of 1% BSA TBST was added to each well followed by the addition of a 12.5 μl aliquot of a purified Fab. The plate was sealed and incubated for 1 hour at 20° C. with shaking.
(§2) Detection antibodies were prepared by individually conjugating both goat anti-human Kappa light chain polyclonal antibody (K3502-1MG, Sigma-Aldrich) and goat anti-human Lambda light chain polyclonal antibody (L1645-1 mL, Sigma-Aldrich) with Ruthenium (II) tris-bipyridine-(4-methylsulfone)-N-hydroxysuccinimide (SULFO-TAG NHS-ester, Meso Scale Discovery) according to the manufacturer's instructions. TAG-detection antibody at 25 μl was added to each well and allowed to incubate for 1 hour at 20° C. with shaking. Finally, 15 μl of Read Buffer P with Surfactant (Cat # R92PC-1, Meso Scale Discovery) was added to each well. The electrochemiluminescence was measured using a Sector Imager 2400 (Meso Scale Discovery). Data was analyzed by comparing the ECL signals for an antigen to the blank of each well. A signal to blank ratio of 4 or more was considered a “Hit” Fab.
(§3) To confirm a “Hit” from the initial Multispot ECL screening, a Fab concentration dependent titration was carried out to determine the Fab-antigen binding affinity.

[2] = biological target: T2, rHuman IGF-1 sR, (IGF-1 sR), CF (Cat# 391-GR) (human, UniProt P08069 31-932); experiment: Multispot ECL; Fab 32.5 nM
T2 construct: Bought from R&D Systems; also called insulin-like growth factor-1 soluble receptor
Description: as §1, §2, §3

[3] = biological target: T3, rHuman ErbB2/Fc Chimera, CF (Cat# 1129-ER) (human, UniProt P04626 23-652); experiment: Multispot ECL; Fab 32.5 nM
T3 construct: Bought from R&D Systems; also called human epidermal growth factor 2 receptor (ErbB2)
Description: as §1, §2, §3

[4] = biological target: T4, rHuman HGF R/c-MET/Fc Chimera, CF (Cat# 358-MT/CF) (human, UniProt P08581 25-932); experiment: Multispot ECL; Fab 32.5 nM
T4 construct: Bought from R&D Systems; also called HGF R/Fc; hepatocyte growth factor receptor (HGF R/c-Met)
Description: as §1, §2, §3

[5] = biological target: T5, rHuman Erythropoietin R/Fc Chimera, CF (Cat# 963-ER) (human, UniProt P19235 25-250); experiment: Multispot ECL; Fab 32.5 nM
T5 construct: Bought from R&D Systems; also called EPO R/Fc; Epo R/Fc chimera
T5 sequence (looked up): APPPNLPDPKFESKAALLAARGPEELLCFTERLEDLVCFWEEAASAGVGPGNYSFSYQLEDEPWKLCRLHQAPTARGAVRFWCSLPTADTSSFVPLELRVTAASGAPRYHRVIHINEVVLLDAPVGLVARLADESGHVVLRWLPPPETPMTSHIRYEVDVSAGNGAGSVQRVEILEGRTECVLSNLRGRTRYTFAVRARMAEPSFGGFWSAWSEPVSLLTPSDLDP
Description: as §1, §2, §3

[6] = biological target: T6, rHuman CD44/Fc Chimera, CF (Cat# 3660-CD) (human, UniProt P16070 21-220); experiment: Multispot ECL; Fab 32.5 nM
T6 construct: Bought from R&D Systems
Description: as §1, §2, §3

[7] = biological target: T7, rHuman EGF R/Fc Chimera, CF (Cat# 344-ER) (human, UniProt P00533 25-645); experiment: Multispot ECL; Fab 32.5 nM
T7 construct: Bought from R&D Systems; also called epidermal growth factor receptor (EGF R)
Description: as §1, §2, §3

[8] = biological target: T8, rHuman Notch-1/Fc Chimera, CF (Cat# 3647-TK) (human, UniProt P46531 19-526); experiment: Multispot ECL; Fab 32.5 nM
T8 construct: Bought from R&D Systems
Description: as §1, §2, §3

[9] = biological target: T1, Recombinant Human DLL4 (Cat# 1506-D4/CF); experiment: Multispot ECL; Fab 8.1 nM
Description: as §1, §2, §3

[10] = biological target: T2, rHuman IGF-1 sR, (IGF-1 sR), CF (Cat# …); experiment: Multispot ECL; Fab 8.1 nM
Description: as §1, §2, §3

[11] = biological target: T6, rHuman CD44/Fc Chimera, CF (Cat# …); experiment: Multispot ECL; Fab 8.1 nM
Description: as §1, §2, §3

[12] = biological target: T1, Recombinant Human DLL4 (Cat# 1506-D4/CF); experiment: Multispot ECL; Fab 2.0 nM
Description: as §1, §2, §3

[13] = biological target: T2, rHuman IGF-1 sR, (IGF-1 sR), CF (Cat# …); experiment: Multispot ECL; Fab 2.0 nM
Description: as §1, §2, §3

[14] = biological target: T3, rHuman ErbB2/Fc Chimera, CF (Cat# …); experiment: Multispot ECL; Fab 2.0 nM
Description: as §1, §2, §3

[15] = biological target: T4, rHuman HGF R/c-MET/Fc Chimera, CF (Cat# …); experiment: Multispot ECL; Fab 2.0 nM
Description: as §1, §2, §3

[16] = biological target: T5, rHuman Erythropoietin R/Fc Chimera, CF …; experiment: Multispot ECL; Fab 2.0 nM
Description: as §1, §2, §3

[17] = biological target: T6, rHuman CD44/Fc Chimera, CF (Cat# …); experiment: Multispot ECL; Fab 2.0 nM
Description: as §1, §2, §3

[18] = biological target: T7, rHuman EGF R/Fc Chimera, CF (Cat# …); experiment: Multispot ECL; Fab 2.0 nM
Description: as §1, §2, §3

[19] = biological target: T8, rHuman Notch-1/Fc Chimera, CF (Cat# …); experiment: Multispot ECL; Fab 2.0 nM
Description: as §1, §2, §3

ECL signal [1]: 2990
ECL signal [2]: 561
ECL signal [3]: 556
ECL signal [4]: 525
ECL signal [5]: 673
ECL signal [6]: 573
ECL signal [7]: 645
ECL signal [8]: 706
ECL signal [9]: 1550
ECL signal [10]: 518
ECL signal [11]: 528
ECL signal [12]: 605
ECL signal [13]: 367
ECL signal [14]: 382
ECL signal [15]: 356
ECL signal [16]: 433
ECL signal [17]: 447
ECL signal [18]: 424
ECL signal [19]: 539
B1: Fab VH1-8_IGHD2-2*01_IGHJ6*01 & L12_IGKJ1*01 (Fab, V domains shown)
VH: QVQLVQSGAEVKKPGASVKVSCKASGYTFTSYDINWVRQATGQGLEWMGWMNPNSGNTGYAQKFQGRVTMTRNTSISTAYMELSSLRSEDTAVYYCARGGYCSSTSCYADYYYYYGMDVWGQGTTVTVSS
VL: not shown
